{
  "source": "patent EP4674868A1",
  "about": "(Jiangsu Hengrui Pharmaceuticals Co., Ltd., dated 2026)",
  "binders": {"B1": {"name": "MP0310 (FAP/4-1BB bispecific antibody molecule, control) (other)", "chain": "GSDLGKKLLEAARAGQDDEVRELLKAGADVNAKDYFSHTPLHLAARNGHLKIVEVLLKAGADVNAKDFAGKTPLHLAAADGHLEIVEVLLKAGADVNAQDIFGKTPADIAADAGHEDIAEVLQKAAGSPTPTPTTPTPTPTTPTPTPTGSDLGKKLLEAARAGQDDEVRELLKAGADVNAKDVLGWTPLHLAAFEGHLEIVEVLLKAGADVNAKDKKGWTPLQLAARTGHLEIVEVLLKAGADVNAKDHIGATPLHLAAWQGHPEIVEVLLKAGADVNAQDKSGKTPADLAADAGHEDIAEVLQKAAGSPTPTPTTPTPTPTTPTPTPTGSDLGQKLLKAAQEGQDDEVRELLKAGADVNAKDLRGITPLHVAAWQGHLEIVEVLLKAGADVNAKDSKGETPLHLAAFRGHLEIVEVLLKAGADVNAQDQQGETPADLAALAGHVDIAEVLQKAAGSPTPTPTTPTPTPTTPTPTPTGSDLGQKLLKAAQEGQDDEVRELLKAGADVNAKDLRGITPLHVAAWQGHLEIVEVLLKAGADVNAKDSKGETPLHLAAFRGHLEIVEVLLKAGADVNAQDQQGETPADLAALAGHVDIAEVLQKAAGSPTPTPTTPTPTPTTPTPTPTGSDLGKKLLEAARAGQDDEVRELLKAGADVNAKDYFSHTPLHLAARNGHLKIVEVLLKAGADVNAKDFAGKTPLHLAAADGHLEIVEVLLKAGADVNAQDIFGKTPADIAADAGHEDIAEVLQKAAHHHHHH"}, "B2": {"name": "C5_V2-YTIQ linked to human IgG1-Fc (Fc fusion)", "chain": "QVQLVESGGGLVQPGGSLRLSCSASGFTFSSYAMSWVRQAPGKGLEWVSDINSGGQSTFYADSVKGRFTISRDNAKNTLYLQMNSLRAEDTAVYYCAKHPLTYTIATMNDYDYWGQGTQVTVSSEPKSADKTHTCPPCPAPELLGGPSVFLFPPKPKDTLMISRTPEVTCVVVDVEHEDPEVKFNWYVDGVEVHNAKTKPREEQYNSTYRVVSVLTVLHQDWLNGKEYKCKVSSKAFPAPIEKTISKAKGQPREPQVYTLPPSRDELTKNQVSLTCLVKGFYPSDIAVEWESNGQPENNYKTTPPVLDSDGSFFLYSKLTVDKSRWQQGNVFSCSVMHEALHNHYTQKSLSLSPGK"}, "B3": {"name": "humanized anti-4-1BB nanobody C5_V1 linked to human IgG1-Fc (Fc fusion)", "chain": "B2 chain with Q56E, A61E, K98R, Y103F, Q119L"}, "B4": {"name": "humanized anti-4-1BB nanobody C5_V3 linked to human IgG1-Fc (Fc fusion)", "chain": "B2 chain with Q56E, A61E, R87K, A88P, Y103F, Q119L"}, "B5": {"name": "control anti-FAP antibody 28H1 (antibody, V domains shown)", "VH": "EVQLLESGGGLVQPGGSLRLSCAASGFTFSSHAMSWVRQAPGKGLEWVSAIWASGEQYYADSVKGRFTISRDNSKNTLYLQMNSLRAEDTAVYYCAKGWLGNFDYWGQGTLVTVSS", "VL": "EIVLTQSPGTLSLSPGERATLSCRASQSVSRSYLAWYQQKPGQAPRLLIIGASTRATGIPDRFSGSGSGTDFTLTISRLEPEDFAVYYCQQGQVIPPTFGQGTKVEIK"}},
  "key": {"[1]": {"target": "T1, human 4-1BB on the surface of HEK293 cells (HEK293-Hu4-1BB) (human, UniProt Q07011 24-255)", "experiment": "cell-based or functional assay"}, "[2]": {"target": "human CD40 on the surface of HEK293 cells (HEK293-HuCD40) (human, UniProt P25942 21-277)", "experiment": "cell-based or functional assay"}, "[3]": {"target": "T1, human 4-1BB on the surface of HEK293 …", "experiment": "FACS, HEK293-Hu4-1BB cells"}, "[4]": {"target": "T1, human 4-1BB on the surface of HEK293 …", "experiment": "FACS, HEK293-Hu4-1BB cells", "remark": "listed apart in the source"}, "[5]": {"target": "T1, human 4-1BB on the surface of HEK293 …", "experiment": "cell-based or functional assay", "remark": "listed apart in the source"}, "[6]": {"target": "T2, h-FAP-His (recombinant human fibroblast activation protein, Leu26-Asp760, His-tagged) (human, UniProt Q12884 26-760)", "T2 construct": "range 26-760; Bought protein with a His tag; also called human FAP-His protein; His-tagged FAP recombinant protein", "T2 sequence (Q12884 26-760 limits assumed)": "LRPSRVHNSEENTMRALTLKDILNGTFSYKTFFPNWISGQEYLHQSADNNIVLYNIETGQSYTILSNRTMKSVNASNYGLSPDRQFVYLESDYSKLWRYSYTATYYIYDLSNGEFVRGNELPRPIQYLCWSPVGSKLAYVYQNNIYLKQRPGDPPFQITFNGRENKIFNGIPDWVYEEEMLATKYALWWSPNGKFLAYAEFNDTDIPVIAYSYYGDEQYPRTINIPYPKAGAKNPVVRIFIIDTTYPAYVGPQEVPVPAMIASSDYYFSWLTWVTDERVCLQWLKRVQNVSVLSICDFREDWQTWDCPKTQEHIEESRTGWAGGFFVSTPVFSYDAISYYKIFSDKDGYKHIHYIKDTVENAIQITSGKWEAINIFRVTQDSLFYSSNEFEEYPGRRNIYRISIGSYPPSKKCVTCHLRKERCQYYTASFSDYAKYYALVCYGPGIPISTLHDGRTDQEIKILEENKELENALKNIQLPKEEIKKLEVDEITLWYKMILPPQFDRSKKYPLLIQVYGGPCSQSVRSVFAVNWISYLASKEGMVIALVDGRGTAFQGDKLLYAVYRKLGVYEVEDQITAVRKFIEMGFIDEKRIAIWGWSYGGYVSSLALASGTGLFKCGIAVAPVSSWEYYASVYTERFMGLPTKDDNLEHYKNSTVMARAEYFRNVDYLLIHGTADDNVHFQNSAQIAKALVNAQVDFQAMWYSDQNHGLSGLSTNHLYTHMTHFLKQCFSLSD", "experiment": "SPR, antibody captured by anti-human IgG (Fc) on CM5 chip, h-FAP-His as analyte"}},
  "note": "Residue numbers refer to the chain shown, from its start. Read-outs that look alike come from different tables or passages of the source.",
  "data": [
    {"binder": "B1", "values": [
      {"measurement": "4-1BB/NF-κB luciferase reporter, CD40-crosslinked, Fold change in Emax", "setting": "[1]", "value": 1.11, "unit": "fold"},
      {"measurement": "4-1BB/NF-κB luciferase reporter, FAP-crosslinked, EC50", "setting": "[1]", "value": 0.02, "unit": "nM"},
      {"measurement": "4-1BB/NF-κB luciferase reporter, FAP-crosslinked, Fold change in Emax", "setting": "[1]", "value": 13.8, "unit": "fold"},
      {"measurement": "4-1BB/NF-κB luciferase reporter, uncrosslinked, Fold change in Emax", "setting": "[1]", "value": 1.01, "unit": "fold"},
      {"measurement": "CD40/NF-κB reporter (HEK-Blue CD40L), 4-1BB-crosslinked, Fold change in Emax", "setting": "[2]", "value": 1.01, "unit": "fold"},
      {"measurement": "CD40/NF-κB reporter (HEK-Blue CD40L), FAP-crosslinked, Fold change in Emax", "setting": "[2]", "value": 0.99, "unit": "fold"},
      {"measurement": "CD40/NF-κB reporter (HEK-Blue CD40L), uncrosslinked, Fold change in Emax", "setting": "[2]", "value": 1.03, "unit": "fold"}
    ]},
    {"binder": "B2", "values": [
      {"measurement": "EC50", "setting": "[3]", "value": 0.7, "unit": "nM"},
      {"measurement": "Maximum fluorescence value", "setting": "[3]", "value": 51700}
    ]},
    {"binder": "B3", "values": [
      {"measurement": "EC50", "setting": "[4]", "value": 3.79, "unit": "nM"},
      {"measurement": "Maximum fluorescence value", "setting": "[4]", "value": 1040},
      {"measurement": "Activation of HEK293-4-1BB cells (NF-κB reporter), Fold change in Emax", "setting": "[5]", "value": 1.14, "unit": "fold"},
      {"measurement": "FcγRIIb-mediated activation of HEK293-4-1BB cells (NF-κB reporter), Fold change in Emax", "setting": "[5]", "value": 2.28, "unit": "fold"}
    ]},
    {"binder": "B4", "values": [
      {"measurement": "EC50", "setting": "[4]", "value": 1.65, "unit": "nM"}
    ]},
    {"binder": "B5", "values": [
      {"measurement": "Kd", "setting": "[6]", "value": 1.31, "unit": "nM"},
      {"measurement": "Ratio of KD of 28H1 to KD of test antibody", "setting": "[6]", "value": 1},
      {"measurement": "Ratio of Kd of 28H1 to Kd of test antibody", "setting": "[6]", "value": 1},
      {"measurement": "koff", "setting": "[6]", "value": 0.000255, "unit": "s⁻¹"},
      {"measurement": "kon", "setting": "[6]", "value": 195000, "unit": "M⁻¹ s⁻¹"}
    ]}
  ]
}
